Assay results reported in patent US20190233498A1 (H LUNDBECK A S, published 2019).

T1: human PACAP27 (human, C-terminal leucine is amidated; 125I-labelled in Example 10)
T1 peptide: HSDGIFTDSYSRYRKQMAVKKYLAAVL

T2: human PACAP38 (human, not fully specified; C-terminal lysine is amidated; N-terminal or C-terminal biotin in the HTRF and PC-12 cell binding assays)
T2 construct: synthetic peptide, bought; also called huPACAP (1-38)
T2 peptide: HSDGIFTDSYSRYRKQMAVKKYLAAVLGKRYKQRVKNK

T3: human VIP (human)
T3 construct: also called Vasoactive Intestinal Peptide
T3 peptide: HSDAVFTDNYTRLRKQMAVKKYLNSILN


Legend:
[1] = molecular target: T1, human PACAP27; assay: SPR, Ab immobilised
[2] = molecular target: T2, human PACAP38; assay: SPR, Ab immobilised
How it was run: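 SPR with antibody amine-coupled to the chip and human PACAP38 flowed as analyte at 1.23–100 nM in PBST containing 0.25 M arginine, 0.2 mg/ml BSA and 0.005% azide, pH 7. Association lasted 2–4 min and dissociation 3–120 min. Kinetics were fitted to a 1:1 Langmuir model.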

[3] = molecular target: T3, human VIP; assay: SPR, Ab immobilised
[4] = molecular target: T2, human PACAP38; assay: cell-based or functional assay
[5] = molecular target: T2, human PACAP38; assay: cell-based or functional assay
[6] = molecular target: T2, human PACAP38; assay: inhibition of 30 nM biotin-PACAP38 binding to PC-12 cells, TRF
Description: To identify antibodies that block PACAP38 binding to PAC1-R-expressing cells, adherent PC-12 cells (ATCC, Manassas, Va.) expressing PAC1-R were used in a Europium-based PAC1-R expressing cells binding assay.
Antibody solutions were incubated with N-terminal biotinylated PACAP38 at 10× the final concentration (100 nM or 30 nM) for 1 hr, then added to PC-12 cells that were plated 24 hrs. prior in black clear bottom 96 well plates (COSTAR™, Corning Incorporated, Corning, N.Y.) and further incubated for 1 hr at room temperature. After three washes, the cells were incubated with 20 μl Europium-labeled streptavidin (PerkinElmer, Waltham, Mass.) for 1 hr at room temperature. Cells were washed three times, then 20 μl DELFIA® Enhancement solution (PerkinElmer, Waltham, Mass.) was added to each well and incubated for 15 minutes with gentle shaking. Plates were read (Time Resolved Fluorescence (“TRF”)) on SPECTRAMAX® (Molecular Devices, Sunnyvale, Calif.) plate reader.
FIGS. 14A-14BB are representative of the inhibition curves obtained by this method (results are shown for Ab1, Ab2, Ab3, Ab4, Ab5, Ab6, Ab7, Ab8, Ab9, Ab10, Ab11, Ab12, Ab13, Ab14, Ab15, Ab16, Ab17, Ab18, Ab19, Ab1.H, Ab10.H, Ab22, Ab23, Ab3.H, Ab4.H, Ab5.H, Ab9.H, and Ab12.H, respectively) wherein the PAC1-R expressing cells were PC-12 cells.

[7] = molecular target: T2, human PACAP38; assay: HTRF binding, biotin-PACAP38
How it was run: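 Antibody dilution series (top 100 nM final) incubated with N- or C-terminal biotinylated PACAP38 (35 nM final), alone or with 350 nM PACAP27 or VIP. HTRF with Eu³⁺ anti-human Fc donor and d2-streptavidin acceptor, 1 h at room temperature, read at 620/665 nm; EC₅₀ from binding curves.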

[8] = molecular target: T2, human PACAP38; assay: cell-based or functional assay
[9] = molecular target: T1, human PACAP27; assay: cell-based or functional assay
[10] = molecular target: T2, human PACAP38; assay: inhibition of 100 nM biotin-PACAP38 binding to PC-12 cells, TRF
How it was run: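 Antibodies were preincubated 1 h with N-terminally biotinylated PACAP38, then added to adherent PAC1-R-expressing PC-12 cells for 1 h at room temperature. After washing, bound peptide was detected with Europium-streptavidin (1 h, RT) plus DELFIA enhancement, read by time-resolved fluorescence, and inhibition curves were generated.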

Row | Binder | koff [1] | Kd [2] | koff [2] | kon [2] | Kd [3] | koff [3] | kon [3] | IC50, 0.1 nM PACAP38-induced PAC1-R mediated cAMP increase [4] | IC50, 5 nM PACAP38-induced human VPAC1-R mediated cAMP increase [5] | IC50 [6] | EC50 [7] | IC50, 1 nM PACAP38-induced human VPAC2-R mediated cAMP increase [8] | Kd [1] | kon [1] | IC50, 0.1 nM PACAP27-induced PAC1-R mediated cAMP increase [9] | IC50 [10]
1 | anti-PACAP antibody Ab22 (antibody, human IgG1, kappa, N297A, V domains shown, full-length rabbit/human chimeric antibody; PACAP38 specific) VH: QEQLVESGGGLVQPEGSLTLTCTASGFDFSSNAMCWVRQAPGKGLEWIGSIYNADGKNYYAIWAKGRFTISRTSSTTVTLQMTSLTAADTATYFCARDFDLWGQGTLVTVSS VL: AAVLTQTPSPVSAAVGGTVTINCQSSQSVYDNDWLAWFQQKPGQPPKLLIYLTSTLASGVPSRFSGSGSGTQFTLTISGVQCDDAATYYCLGGYDEDGDTHVFGGGTEVVVKR | 0.1 s⁻¹ | ≤ 0.027 nM | ≤ 1e-05 s⁻¹ | 370000 M⁻¹ s⁻¹ | 0.69 µM | 0.18 s⁻¹ | 270000 M⁻¹ s⁻¹ | 0.000101 µM | 0.0013 µM | 0.0138 µM | 0.00057 µM | 0.000515 µM | – | – | – | –
2 | anti-PACAP antibody Ab4.H (antibody, human IgG1, kappa, N297A, V domains shown, humanized form of Ab4, full length) VH: EVQLVESGGGLVQPGGSLRLSCAASGFSLSSYDMSWVRQAPGKGLEWIGIINTNDDTWYASWVKGRFTISRDNSKNTLYLQMNSLRAEDTAVYYCARISDAYVFDYAYYFTLWGQGTLVTVSS VL: DIQMTQSPSTLSASVGDRVTITCLASQNIYNSLAWYQQKPGKAPKLLIYRASTLASGVPSRFSGSGSGTEFTLTISSLQPDDFATYYCQQGAGADNIGNPFGGGTKVEIKR | ≤ 1e-05 s⁻¹ | 0.1 nM | 3.2e-05 s⁻¹ | 310000 M⁻¹ s⁻¹ | 0.072 µM | 0.024 s⁻¹ | 330000 M⁻¹ s⁻¹ | 0.000307 µM | 0.0026 µM | 0.098 µM | – | 0.00449 µM | ≤ 0.031 nM | 330000 M⁻¹ s⁻¹ | 0.294 nM | –
3 | anti-PACAP antibody Ab2 (antibody, human IgG1, kappa, N297A, V domains shown, full-length rabbit/human chimeric antibody) VH: QSVEESGGRLVTPGTPLTLTCTVSGFSLSGAAMNWVRQAPGKGLEWIGVIGNSGSTYYASWAKGRFTISKTSSTTVDLKMTSPTTEDTATYFCARGGGEFFIWGQGTLVTVSS VL: AQVLTQTPSPVSAAVGGTVTINCQSSESVYKNNYLSWYQQKPGQPPKFLIYQASNLADGVPSRFKGSGSGTQFTLTISDLECDDAATYYCAGGYSTYMSGFGGGTEVVVKR | ≤ 1e-05 s⁻¹ | ≤ 0.044 nM | ≤ 1e-05 s⁻¹ | 230000 M⁻¹ s⁻¹ | 0.14 µM | 0.084 s⁻¹ | 580000 M⁻¹ s⁻¹ | 0.000237 µM | 0.000688 µM | – | 0.00035 µM | 0.000174 µM | ≤ 0.012 nM | 830000 M⁻¹ s⁻¹ | 0.063 nM | 0.0266 µM
4 | anti-PACAP antibody Ab5.H (antibody, human IgG1, kappa, N297A, V domains shown, humanized form of Ab5, full length) VH: EVQLVESGGGLVQPGGSLRLSCAASGFSLSSYAMIWVRQAPGKGLEWVGIIYDNGDTYYASSAKGRFTISRDNSKNTVYLQMNSLRAEDTAVYFCAREPGSTTQNDLWGQGTLVTVSS VL: DVQMTQSPSTLSASVGDRVTITCQASENIYNSLLWYQQKPGKAPKLLIYRASTLASGVPSRFSGSGSGTEFTLTISSLQPDDFATYYCQNYYNIWTNGAAFGGGTKVEIKR | 0.00013 s⁻¹ | 0.031 nM | 1.7e-05 s⁻¹ | 550000 M⁻¹ s⁻¹ | 100000 µM | 0.1 s⁻¹ | – | 0.000378 µM | 0.00277 µM | 0.0349 µM | – | 0.00747 µM | 0.48 nM | 270000 M⁻¹ s⁻¹ | 0.217 nM | –
5 | anti-PACAP antibody Ab3.H (antibody, human IgG1, kappa, N297A, V domains shown, humanized form of Ab3, full length) VH: EVQLVESGGGLVQPGGSLRLSCAASGFSFSSSDYMCWVRQAPGKGLEWIGCIDAGSSGDTYFASSAKGRFTISRDNSKNTVYLQMNSLRAEDTAVYFCARHLYGSITFAFGLWGQGTLVTVSS VL: AAQMTQSPSTLSASVGDRVTITCQASQSIGSDLAWYQQKPGKAPKLLIYDASTLASGVPSRFSGSGSGTEFTLTISSLQPDDFATYYCQGTYYSSGWYTAFGGGTKVEIKR | 0.00034 s⁻¹ | 0.29 nM | 0.00014 s⁻¹ | 490000 M⁻¹ s⁻¹ | 100000 µM | 0.1 s⁻¹ | – | 0.00132 µM | 0.00733 µM | 0.0883 µM | – | 0.0642 µM | 1 nM | 330000 M⁻¹ s⁻¹ | 1.21 nM | –
6 | anti-PACAP antibody Ab9.H (antibody, human IgG1, kappa, N297A, V domains shown, humanized form of Ab9, full length) VH: EVQLVESGGGLVQPGGSLRLSCAASGFTVSRDYWICWVRQAPGKGLEWIGCISAGGGSTDYANWVNGRFTISRDISKNTGYLQMNSLRAEDTAVYYCAGNLEIWGQGTLVTVSS VL: DIQMTQSPSTLSASVGDRVTITCQSSPSIYSGAFLSWYQQKPGKAPKFLIYEASKLASGVPSRFSGSGSGTEFTLTISSLQPDDFATYYCLGFYDCSSVDCHAFGGGTKVEIKR | 7.7e-05 s⁻¹ | 0.061 nM | 6.1e-05 s⁻¹ | 1e+06 M⁻¹ s⁻¹ | 1.5 µM | 0.14 s⁻¹ | 93000 M⁻¹ s⁻¹ | 0.000278 µM | 0.00246 µM | 0.0225 µM | – | 0.00265 µM | 0.12 nM | 620000 M⁻¹ s⁻¹ | 0.271 nM | –
